# From patent US6319685A (Unigene Laboratories, Inc., priority 1987, dated 2001)
# Where two headings read alike, the source gives them in different places. No end group written: not given here.
# T1: alpha-amidating enzyme (Rattus norvegicus, UniProt P14925)
# T1 sequence (P14925 36-976): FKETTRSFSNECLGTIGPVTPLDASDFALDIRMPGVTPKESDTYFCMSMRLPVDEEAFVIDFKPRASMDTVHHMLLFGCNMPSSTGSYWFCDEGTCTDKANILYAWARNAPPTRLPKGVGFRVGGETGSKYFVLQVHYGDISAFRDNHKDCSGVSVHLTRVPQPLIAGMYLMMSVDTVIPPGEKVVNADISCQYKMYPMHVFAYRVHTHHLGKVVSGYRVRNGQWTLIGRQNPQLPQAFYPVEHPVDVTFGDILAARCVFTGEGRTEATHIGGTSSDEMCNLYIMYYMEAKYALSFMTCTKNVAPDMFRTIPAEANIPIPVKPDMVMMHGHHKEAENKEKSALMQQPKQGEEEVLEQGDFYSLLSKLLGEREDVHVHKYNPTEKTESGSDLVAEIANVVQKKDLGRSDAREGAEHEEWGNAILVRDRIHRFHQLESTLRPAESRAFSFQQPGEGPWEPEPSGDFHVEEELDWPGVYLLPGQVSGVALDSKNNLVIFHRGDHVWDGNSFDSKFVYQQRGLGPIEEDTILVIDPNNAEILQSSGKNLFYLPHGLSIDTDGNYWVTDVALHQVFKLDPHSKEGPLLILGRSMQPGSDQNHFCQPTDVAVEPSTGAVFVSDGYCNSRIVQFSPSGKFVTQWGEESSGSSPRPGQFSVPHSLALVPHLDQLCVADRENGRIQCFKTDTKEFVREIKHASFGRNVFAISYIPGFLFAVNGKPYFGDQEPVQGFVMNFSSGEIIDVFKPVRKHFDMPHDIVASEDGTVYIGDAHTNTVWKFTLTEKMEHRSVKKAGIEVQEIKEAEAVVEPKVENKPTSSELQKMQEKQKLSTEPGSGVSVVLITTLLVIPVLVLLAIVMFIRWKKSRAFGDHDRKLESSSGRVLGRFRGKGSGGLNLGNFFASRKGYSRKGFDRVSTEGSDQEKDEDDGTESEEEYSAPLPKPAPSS
# Experiments:
# [1] = biological activity of amidated recombinant hormones versus synthetic hormone
# alpha-amidating enzyme = molecular target: T1, alpha-amidating enzyme; test: co-factor requirement of alpha-amidating enzyme for maximal activity; format: biochemical
# [2] = pH optimum of alpha-amidating enzyme; format: biochemical; details: rat MTC tumor enzyme, N dansyl Tyr-Val-Gly substrate
# Method: 2. The optimum pH for the activity of the enzyme was determined to be pH 5.0-5.5 using N dansyl Tyr-Val-Gly as the substrate (FIG. XVI). However, due to the enhanced stability of the enzyme at neutral pH, it may be beneficial to carry out the amidation reaction at such pH.
# [3] = iso-electric point of alpha-amidating enzyme; format: physicochemical
# [4] = specific alpha-amidating activity, conversion of Dansyl-D-Tyr-Val-Gly to Dansyl-D-Tyr-Val-CONH2; format: biochemical; details: homogeneous peak III enzyme, rat MTC tumor
# Method: These and other objects will become apparent from a thorough reading of the present disclosure. […] All specific activity units set forth herein are based upon the conversion of Dansyl-D-Try-Val-Gly-COOH to Dansyl-D-Tyr-Val-CONH2. One mU is defined as the amount of activity needed to convert one nanomole (nmole) of Dansyl-D-Tyr-Val-Gly-COOH to one nmole of Dansyl-D-Tyr-Val-CONH2 per minute at 37° C. and pH 7.0 in the presence of ascorbate ions at a concentration of 3 mM (based on total reaction mixture including enzyme, substrate, co-factors, etc.), molecular oxygen in a molar excess over substrate and a concentration of cupric ions effective to maximize activity (usually about 2 μM depending on the state of purity of the enzyme).
# Each purification step can be monitored for both protein content and the level of alpha-amidation activity. This information is used to calculate the specific activity of the enzyme which serves as an indicator of the relative purity of the enzyme.
# Sephacryl S-300 (Pharmacia) was equilibrated in 50 mM Tris HCl pH 7.0 and poured into a K 50/100 column (Pharmacia) according to the manufacturer's instructions. The bed volume of the column was approximately 1.3 liters. The Sample was loaded onto the column in a volume representing approximately 3 percent of the bed volume of the column. Proteins were eluted from the column in 50 mM Tris HCl pH 7.0 at a flow rate of approximately 2 ml per minute.
# The reaction mixture for the conversion of the monodansyl substrate contained:
# The samples were prepared in duplicate and incubated at 37° C. for 10, 20 and 30 minutes time periods. The enzymatic reaction was halted by the addition of 10 ul 500 mM EDTA.
# [5] = cited from earlier work
molecule,measurement,setting,value
"recombinant hGHRF: recombinant, alpha-amidated human growth hormone releasing factor (YADAIFTNSYRKVLGQLSARKLLQDIMSRQQGESNQERGARARL-NH2; UniProt P01286 32-75, looked up)",biological activity (and characterization) compared with synthetic hormone,[1],indistinguishable from synthetic hGHRF
"recombinant human calcitonin: purified alpha-amidated recombinant human calcitonin (CGNLSTCMLGTYTQDFNKFHTFPQTAIGVGAP-NH2; ends and bridges not checked; UniProt P01258 85-116, looked up)",biological activity (and characterization) compared with synthetic hormone,[1],indistinguishable from synthetic human calcitonin
"peak III enzyme (MTC tumor): MTC tumor alpha-amidating enzyme peak eluting at 220 mM NaCl from Mono Q pH 6.0, purified to homogeneity (protein, UniProt P14925 36-976, looked up, Mono Q peak III form) Peptidylglycine …: FKETTRSFSNECLGTIGPVTPLDASDFALDIRMPGVTPKESDTYFCMSMRLPVDEEAFVIDFKPRASMDTVHHMLLFGCNMPSSTGSYWFCDEGTCTDKANILYAWARNAPPTRLPKGVGFRVGGETGSKYFVLQVHYGDISAFRDNHKDCSGVSVHLTRVPQPLIAGMYLMMSVDTVIPPGEKVVNADISCQYKMYPMHVFAYRVHTHHLGKVVSGYRVRNGQWTLIGRQNPQLPQAFYPVEHPVDVTFGDILAARCVFTGEGRTEATHIGGTSSDEMCNLYIMYYMEAKYALSFMTCTKNVAPDMFRTIPAEANIPIPVKPDMVMMHGHHKEAENKEKSALMQQPKQGEEEVLEQGDFYSLLSKLLGEREDVHVHKYNPTEKTESGSDLVAEIANVVQKKDLGRSDAREGAEHEEWGNAILVRDRIHRFHQLESTLRPAESRAFSFQQPGEGPWEPEPSGDFHVEEELDWPGVYLLPGQVSGVALDSKNNLVIFHRGDHVWDGNSFDSKFVYQQRGLGPIEEDTILVIDPNNAEILQSSGKNLFYLPHGLSIDTDGNYWVTDVALHQVFKLDPHSKEGPLLILGRSMQPGSDQNHFCQPTDVAVEPSTGAVFVSDGYCNSRIVQFSPSGKFVTQWGEESSGSSPRPGQFSVPHSLALVPHLDQLCVADRENGRIQCFKTDTKEFVREIKHASFGRNVFAISYIPGFLFAVNGKPYFGDQEPVQGFVMNFSSGEIIDVFKPVRKHFDMPHDIVASEDGTVYIGDAHTNTVWKFTLTEKMEHRSVKKAGIEVQEIKEAEAVVEPKVENKPTSSELQKMQEKQKLSTEPGSGVSVVLITTLLVIPVLVLLAIVMFIRWKKSRAFGDHDRKLESSSGRVLGRFRGKGSGGLNLGNFFASRKGYSRKGFDRVSTEGSDQEKDEDDGTESEEEYSAPLPKPAPSS",Cu++ required for maximal activity,alpha-amidating enzyme,≤ 0.1 µM
same,pH optimum,[2],5.0-5.5
same,iso-electric point (pI),[3],4.8
same,specific activity,[4],"2,100 mU/mg protein"
"peak II enzyme (MTC tumor): MTC tumor alpha-amidating enzyme peak eluting at 200 mM NaCl from Mono Q pH 6.0 (protein, UniProt P14925 36-976, looked up, Mono Q peak II form) Peptidylglycine …: FKETTRSFSNECLGTIGPVTPLDASDFALDIRMPGVTPKESDTYFCMSMRLPVDEEAFVIDFKPRASMDTVHHMLLFGCNMPSSTGSYWFCDEGTCTDKANILYAWARNAPPTRLPKGVGFRVGGETGSKYFVLQVHYGDISAFRDNHKDCSGVSVHLTRVPQPLIAGMYLMMSVDTVIPPGEKVVNADISCQYKMYPMHVFAYRVHTHHLGKVVSGYRVRNGQWTLIGRQNPQLPQAFYPVEHPVDVTFGDILAARCVFTGEGRTEATHIGGTSSDEMCNLYIMYYMEAKYALSFMTCTKNVAPDMFRTIPAEANIPIPVKPDMVMMHGHHKEAENKEKSALMQQPKQGEEEVLEQGDFYSLLSKLLGEREDVHVHKYNPTEKTESGSDLVAEIANVVQKKDLGRSDAREGAEHEEWGNAILVRDRIHRFHQLESTLRPAESRAFSFQQPGEGPWEPEPSGDFHVEEELDWPGVYLLPGQVSGVALDSKNNLVIFHRGDHVWDGNSFDSKFVYQQRGLGPIEEDTILVIDPNNAEILQSSGKNLFYLPHGLSIDTDGNYWVTDVALHQVFKLDPHSKEGPLLILGRSMQPGSDQNHFCQPTDVAVEPSTGAVFVSDGYCNSRIVQFSPSGKFVTQWGEESSGSSPRPGQFSVPHSLALVPHLDQLCVADRENGRIQCFKTDTKEFVREIKHASFGRNVFAISYIPGFLFAVNGKPYFGDQEPVQGFVMNFSSGEIIDVFKPVRKHFDMPHDIVASEDGTVYIGDAHTNTVWKFTLTEKMEHRSVKKAGIEVQEIKEAEAVVEPKVENKPTSSELQKMQEKQKLSTEPGSGVSVVLITTLLVIPVLVLLAIVMFIRWKKSRAFGDHDRKLESSSGRVLGRFRGKGSGGLNLGNFFASRKGYSRKGFDRVSTEGSDQEKDEDDGTESEEEYSAPLPKPAPSS",pH optimum,[2],5.0-5.5
same,iso-electric point (pI),[3],approximately 5.8
"alpha-amidating enzyme from rat pituitaries: alpha-amidating enzyme partially purified from rat pituitaries (protein, UniProt P14925 36-976, looked up, partially purified) Peptidylglycine …: FKETTRSFSNECLGTIGPVTPLDASDFALDIRMPGVTPKESDTYFCMSMRLPVDEEAFVIDFKPRASMDTVHHMLLFGCNMPSSTGSYWFCDEGTCTDKANILYAWARNAPPTRLPKGVGFRVGGETGSKYFVLQVHYGDISAFRDNHKDCSGVSVHLTRVPQPLIAGMYLMMSVDTVIPPGEKVVNADISCQYKMYPMHVFAYRVHTHHLGKVVSGYRVRNGQWTLIGRQNPQLPQAFYPVEHPVDVTFGDILAARCVFTGEGRTEATHIGGTSSDEMCNLYIMYYMEAKYALSFMTCTKNVAPDMFRTIPAEANIPIPVKPDMVMMHGHHKEAENKEKSALMQQPKQGEEEVLEQGDFYSLLSKLLGEREDVHVHKYNPTEKTESGSDLVAEIANVVQKKDLGRSDAREGAEHEEWGNAILVRDRIHRFHQLESTLRPAESRAFSFQQPGEGPWEPEPSGDFHVEEELDWPGVYLLPGQVSGVALDSKNNLVIFHRGDHVWDGNSFDSKFVYQQRGLGPIEEDTILVIDPNNAEILQSSGKNLFYLPHGLSIDTDGNYWVTDVALHQVFKLDPHSKEGPLLILGRSMQPGSDQNHFCQPTDVAVEPSTGAVFVSDGYCNSRIVQFSPSGKFVTQWGEESSGSSPRPGQFSVPHSLALVPHLDQLCVADRENGRIQCFKTDTKEFVREIKHASFGRNVFAISYIPGFLFAVNGKPYFGDQEPVQGFVMNFSSGEIIDVFKPVRKHFDMPHDIVASEDGTVYIGDAHTNTVWKFTLTEKMEHRSVKKAGIEVQEIKEAEAVVEPKVENKPTSSELQKMQEKQKLSTEPGSGVSVVLITTLLVIPVLVLLAIVMFIRWKKSRAFGDHDRKLESSSGRVLGRFRGKGSGGLNLGNFFASRKGYSRKGFDRVSTEGSDQEKDEDDGTESEEEYSAPLPKPAPSS",enzyme activity outside pH 6.5-7.5,[5]; pH levels below 6.5 or above 7.5,declined rapidly
same,pH optimum,"[5]; pituitary, partially purified",7
